Results: PMC6891578, “An extracellular domain of the EsaA membrane component of the type VIIb secretion system: expression, purification and crystallization” (Acta Crystallographica. Section F, Structural Biology …, 2019)

Molecular target: the molecule itself
Experiment: SEC-MALS; Superdex 200 10/300 GL, 150 mM NaCl, 20 mM Tris–HCl pH 8.0, 3 mM DTT; 100 µl of EsaAex_2 at 4 mg/ml loaded, 0.5 ml/min

B1: EsaAex_2 (extracellular domain of EsaA, amino acids 275–689) (domain or fragment)
chain: MSQKDSVELDNYINALKQMDSQIDQQSSMQDTGKEEYKQTVKENLDKLREIIQSQESPFSKGMIEDYRKQLTESLQDELANNKDLQDALNSIKMNNAQFAENLEKQLHDDIVKEPDTDTTFIYNMSKQDFIAAGLNEGEANKYEAIVKEAKRYKNEYNLKKPLAEHINLTDYDNQVAQDTSSLINDGVKVQRTETIKSNDINQLTVATDPHFNFEGDIKINGKKYDIKDQSVQLDTSNKEYKVEVNGVAKLKKDAEKDFLKDKTMHLQLLFGQANRQDEPNDKKATSVVDVTLNHNLDGRLSKDALSQQLSALSRFDAHYKMYTDTKGREDKPFDNKRLIDMMVDQVINDMESFKDDKVAVLHQIDSMEENSDKLIDDILNNKKNTTKNKEDISKLIDQLENVKKTFAEEPQEPK
notes: EsaA, membrane component of the type VIIb secretion system, S. aureus USA300, amino acids 275–689 of the 1009-residue protein; The His tag was cleaved with TEV protease; also called purified extracellular domain; source: E. coli BL21 Star, purified (HisTrap, TEV cleavage, Ni-NTA flowthrough, SEC); not shown: His6, N-terminal, cleaved
stoichiometry N: 2
